According to the supplement of paper PMC10567573:

B1: DLC1 (parent)
chain: AIQGISEKEKAEIEAKEACDWLRA
B2: NET1 (parent)
chain: RVRPLARVTSLANLISPVRNGAVR

Variants of: B1
Test: protein stability index of a GFP-peptide fusion (GPS, HEK-293T) (PSI 1-6); higher = more stable
Conditions: c terminus: a fixed tail appended
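Further: lentivirally expressed fusions sorted by FACS into six bins by GFP to DsRed ratio, PSI derived from sequencing read proportions per bin multiplied by bin number.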

Protein stability index, by site and new letter:
E7: K 4.3
A18: E 5.02
E14: C 4.07
A15: N 4.24
A11: F 3.64
W21: A 5.41
E17: S 4.17
A24: D 5.14 | T 4.46
K8: P 4.72
E9: N 4.5
S6: V 4.14 | N 4.54

Variants of: B2
Test: as above
Conditions: c terminus: a fixed tail appended

Protein stability index of substitutions, site by site:
T9: G 3.68 | A 2.81 | W 3.24 | Q 3.81 | C 3.08 | S 3.45 | H 2.75 | L 2.09 | R 2.76 | M 2.66 | E 2.87 | D 3.73 | Y 3.12 | V 2.96 | K 3.69 | I 1.84 | P 2.74 | N 3.38 | F 2.85
I15: T 3.5 | M 3.29 | P 3.31 | Q 3.66 | L 3.03 | R 3.56 | D 3.65 | H 4.02 | W 2.47 | K 3.27 | F 2.76 | V 3.39 | C 2.76 | S 3.63 | G 3.6 | N 3.97 | E 4.08 | A 4.27 | Y 3.27
L11: Y 2.43 | T 3.56 | D 3.24 | G 3.25 | M 3.45 | F 3.19 | V 3.08 | R 3.29 | A 3.98 | H 2.94 | N 3.77 | Q 4.39 | I 2.83 | S 3.14 | E 3.56 | K 3.21 | P 3.96 | W 1.98 | C 2.56
N13: Y 1.38 | C 1.93 | D 3.43 | P 3.65 | H 2.66 | W 1.72 | R 3.33 | T 3.11 | A 2.75 | M 1.92 | I 2.34 | F 2.6 | S 2.65 | K 2.84 | G 3.05 | V 2.33 | L 1.98 | E 3.22 | Q 2.52
P17: K 3.09 | T 2.8 | E 2.4 | Y 2.07 | N 2.81 | W 1.89 | F 1.56 | Q 2.29 | I 2.24 | S 3.45 | C 3.96 | G 2.14 | D 3.03 | A 2.1 | H 2.15 | L 2.03 | V 3.16 | R 2.24 | M 2.17
S10: G 2.52 | R 3.06 | Y 2.04 | I 3.84 | F 1.46 | H 2.54 | E 3 | L 1.43 | C 1.62 | M 1.78 | Q 3.42 | V 3.11 | N 3.08 | W 1.99 | D 2.54 | A 2.51 | P 3.01 | K 2.41
V8: Q 2.73 | H 2.49 | E 3.54 | S 3.99 | R 2.92 | G 2.32 | N 2.87 | F 2.28 | L 2.65 | P 3.1 | K 2.6 | M 2.79 | A 4.44 | I 2.38 | D 3.63 | Y 2.38 | C 2.93 | T 3.76 | W 3.05
R1: S 3.43 | N 3.42 | C 2.61 | Q 3.19 | K 2.97 | P 3.11 | D 3.73 | L 2 | F 3.21 | H 2.87 | Y 2.22 | I 2.81 | E 2.79 | M 2.97 | T 3.25 | G 3.11 | V 2.15 | W 2.36
A6: I 2.76 | H 2.69 | Q 3.17 | F 2.71 | T 2.9 | L 2.72 | W 2.35 | C 2.98 | D 2.95 | E 3.06 | P 3.04 | Y 2.02 | G 3.98 | K 2.74 | S 2.53 | N 2.93 | R 3.33 | V 3.36 | M 3.18
V2: P 3.11 | F 1.97 | H 2.91 | C 2.64 | Y 2.62 | T 3.14 | G 3.08 | M 3.04 | D 3.77 | I 2.25 | L 2.29 | K 3.65 | R 2.92 | W 2.67 | S 3.57 | E 3.69 | N 2.79 | A 3 | Q 3.59
S16: M 2.31 | G 3.14 | R 3.03 | P 3.32 | W 2.55 | A 3.46 | L 2.49 | E 3.15 | K 2.88 | C 1.25 | T 3.56 | I 2.44 | Y 2.66 | F 2.21 | Q 3.76 | N 3.23 | H 2.83 | V 2.99 | D 2.86
R3: P 3.49 | K 2.81 | S 3.03 | N 2.36 | T 2.99 | I 2.22 | E 2.59 | F 2.69 | V 2.6 | Y 2.55 | Q 3.33 | L 2.34 | C 1.72 | W 1.91 | H 2.67 | M 2.46 | G 3.1 | D 3.03 | A 3.02
P4: N 2.9 | K 2.87 | Q 2.51 | I 1.4 | M 1.43 | E 2 | H 2.86 | C 1.18 | D 3.06 | T 2.31 | R 1.97 | F 2.4 | W 2.71 | A 2.06 | S 2.85 | V 2.02 | G 2.38
R7: G 3.93 | K 2.26 | F 1.85 | V 2.84 | M 2.64 | W 2.79 | Y 2.77 | L 2.83 | C 2.39 | H 2.71 | N 3.31 | I 2.43 | A 3.88 | E 2.5 | P 3.81 | T 3.39 | D 2.84 | S 2.78 | Q 3.37
V18: A 3.03 | D 4.03 | C 2.21
L14: R 3.34 | A 3.15 | D 4.39 | M 2.61 | E 3.16 | Y 3.17 | H 3.63 | V 2.72 | T 3.67 | G 3.24 | C 1.66 | W 4.15 | P 3.76 | Q 3.02 | N 3.84 | F 2.65 | I 3.03 | K 3.35 | S 3.15
L5: E 3.61 | N 2.56 | Q 3.54 | C 3.04 | I 3.04 | F 2.71 | K 2.85 | A 3.36 | W 2.03 | M 2.55 | Y 2.59 | G 2.5 | R 3.2 | S 3.6 | D 3.04 | T 2.56 | H 3.14 | V 3.59 | P 3.3
A12: I 2.58 | P 4.28 | V 2.89 | L 2.77 | M 2.42 | D 3.93 | F 2.14 | Q 3.71 | K 2.94 | S 3.49 | E 3.91 | Y 2.52 | H 3.27 | R 2.64 | W 1.83 | N 2.79 | T 3.89 | C 2.66
